Consider 84 variants from the RNAGym collection of RNA variant scans (doi:10.1073/pnas.2313332121).

Fewer inactive variants are shown than the library holds.

The labels stand for the following.
B1: TPR 5TU (parent)
chain: GGAUCUUCUCGAUCUAACAAAAAAGACAAAUCUGCCACAAAGCUUGAGAGCAUCUUCGGAUGCAGAGGCGGCAGCCUUCGGUGGCGCGAUAGCGCCAACGUUCUCAACUAUGACACGCAAAACGCGUGCUCCGUUGAAUGGAGUUUAUCAUG

In this data set the parent is B1. In words: polymerase ribozyme fitness, log enrichment relative to wild type (log ratio); higher = more active; in vitro selection for triplet polymerase activity. In short, it runs like this:
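After PCR construction and transcription, each subunit's mutant library from a heterodimeric triplet polymerase ribozyme was annealed with a biotinylated primer, the partner subunit and triplets. Incubation was frozen, at −7 °C, and extended constructs were gel-excised, bound to streptavidin beads and amplified by RT-PCR, in one selection round done in triplicate. Fitness is the logarithm of a genotype's enrichment divided by that of the wild type, from inverse-variance-weighted replicate averages of Illumina-sequenced inputs and outputs. The base of the logarithm is 2, and genotypes needed ≥10 input reads and ≥1 read per output.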
For the variant U15G A24C C35A A107U A147U, the “polymerase ribozyme fitness (log ratio)” value is at most -4.2. To A16G A22U G94A belongs -0.896; to U15C G80C C93G C116G, -4.05. To A16C C51A C54G C57A C96A G117U U135G belongs at most -4.2; to A16C G94A, -1.78.

A16C A26U: the “polymerase ribozyme fitness (log ratio)” value was -2.62. To A16C A17U A20U C38A C57U A60C G84A C116G belongs at most -4.2. On to A16C A73G G92A, for which the “polymerase ribozyme fitness (log ratio)” value is -3.3.

As to U15C A64C G71A G100A C118U, the “polymerase ribozyme fitness (log ratio)” value was at most -4.2. In the case of U15G G50C C69U C76A G84U, the “polymerase ribozyme fitness (log ratio)” value is at most -4.2.

Consider U15C C57G U82G G94A, for which the “polymerase ribozyme fitness (log ratio)” value stood at 0.771. The result for A16C A110G reads -3.67; that for A16C G112U A150U, at most -4.2.

Regarding U15G A16U A41C A52C G81C G83U A106U U127A, the “polymerase ribozyme fitness (log ratio)” value was at most -4.2. The result for U15G A17C A40C reads 0.895; that for A16C A20C C85A G141C, -2.3; that for A16G A20U U33G C85A G94A A150C, at most -4.2. Regarding U15C A40C C93A C95U C116A A121U, the “polymerase ribozyme fitness (log ratio)” value is -1.18. Turning to A16C G25U U61G G88U C93U G136A A147C U148C, the “polymerase ribozyme fitness (log ratio)” value was at most -4.2. With U15G A26U C38G G42A U44A C95G C99U, the “polymerase ribozyme fitness (log ratio)” value was at most -4.2. Consider A16C U55A A106G, for which the “polymerase ribozyme fitness (log ratio)” value was -1.85.

On to U15C A40U U53A G84C, for which the “polymerase ribozyme fitness (log ratio)” value was -1.96.

As for U15C C36G, the “polymerase ribozyme fitness (log ratio)” value was -3.28. Regarding A16G A21C C27G G59A G67C U145G, the “polymerase ribozyme fitness (log ratio)” value is at most -4.2. To U15A G50U G86A C114U belongs -3.13. As to A16C C51A A89U G94A A98U, the “polymerase ribozyme fitness (log ratio)” value is -3.95.

Regarding U15A A24G G25U C32A U56A G59C U82G C103G, the “polymerase ribozyme fitness (log ratio)” value was at most -4.2.

In the case of A16C A17G C96G C118U, the “polymerase ribozyme fitness (log ratio)” value was -1.74.

For the variant U15G A17C C27G C51A G59A C75U C87U, the “polymerase ribozyme fitness (log ratio)” value was at most -4.2.

U15G A22C A60G A73U C76G C103A A122U U151A: the “polymerase ribozyme fitness (log ratio)” value was at most -4.2. To U15A C38U G58A U61G G68A G83A C87G A106C U145C belongs at most -4.2.

A16C C32U A122G: the “polymerase ribozyme fitness (log ratio)” value is -3.01. The result for U15G G50C C95A C99U A120U reads at most -4.2. The result for U15G C57A G86U A122G reads -1.4. To U15A G48C G83U belongs -2.41. On to U15C A22C C85U U127C, for which the “polymerase ribozyme fitness (log ratio)” value was -2. The result for A16G A19U G48A C54A U101G C108A A137C A150C reads at most -4.2. The result for A16C U144G reads -0.499; that for U15G A17G C38A G62C G81A C85G, at most -4.2; that for U15C A16C C85U C118A, -2.79. To U15A A19C A52G G83A C103G belongs -3.83. Turning to A16C U56C C87U, the “polymerase ribozyme fitness (log ratio)” value is -2.13. The result for U15G G34U A107C A115U C118A U134C U135G A150G reads at most -4.2; that for U15A A17C C32G A60G C99U C116U, at most -4.2. The result for A16G A20C U78A C87U reads at most -4.2. To C14U U56G G83U C95U C116U belongs -3.87. U15A A49U A73G U82G A107U: the “polymerase ribozyme fitness (log ratio)” value is at most -4.2. In the case of A16C A22U A89U C93U, the “polymerase ribozyme fitness (log ratio)” value was -3.06. U15G A52C C96U U101G C129A: the “polymerase ribozyme fitness (log ratio)” value was at most -4.2. To U15A C85A belongs -1.53. The result for A16C A17C A20U A30U A37C U55G C93G C103A A119G reads at most -4.2. To U15A C38A A41C C75U U135C belongs -3.63; to U15A A19C A29U G50A C95U A142U, at most -4.2; to U15G A47C C57U C96A C108G, at most -4.2. Take U15G A22U U53A A121C A147C: the “polymerase ribozyme fitness (log ratio)” value came out at 0.0126. As to U15A C54U G92A, the “polymerase ribozyme fitness (log ratio)” value was -3. Consider A16C G94U A107G C116A C132U A142G, for which the “polymerase ribozyme fitness (log ratio)” value is at most -4.2. U15C U55G: the “polymerase ribozyme fitness (log ratio)” value stood at 0.263.

Turning to A16G A30U C38A C96G A97C C105G A107U A110U, the “polymerase ribozyme fitness (log ratio)” value was at most -4.2. The result for U15A A21C A73G C95U U135G A138G U139C reads at most -4.2; that for A16G A20U G46U A60G A138C, at most -4.2. With U15C C54A G59A G84U A106G U146G, the “polymerase ribozyme fitness (log ratio)” value was -2.98. On to U15A G50U C95G C132G, for which the “polymerase ribozyme fitness (log ratio)” value is at most -4.2.

Turning to U15C C57U G59A G68U G84C C129A, the “polymerase ribozyme fitness (log ratio)” value was at most -4.2. The result for A16C C36A G46C G68C C93U G112U A115C A122U G143U reads at most -4.2. As to A16C A37C A40C C63U A64U C69G C76U G141C, the “polymerase ribozyme fitness (log ratio)” value was at most -4.2. Take U15A A16G G58U C69G C85U A89U C96U C108U: the “polymerase ribozyme fitness (log ratio)” value is at most -4.2.

Turning to U15G A89C A119U, the “polymerase ribozyme fitness (log ratio)” value was -0.888. To U15G C27U G83A A121C belongs -2.52. To A16C A20C A39U G42C C76A C95A belongs at most -4.2.

As to A16C A20C A41C C85G C116U, the “polymerase ribozyme fitness (log ratio)” value is -3.81. The result for U15G A39G U53A reads -4.01. The result for U15G C85U C87A reads at most -4.2. The result for U15C C35G A39U A73G G83C G100A A107G C125A G141U reads at most -4.2; that for A16G A17C U31A U55G C57G A115C U135A, -3.86; that for A16C A40C G83A A97G, -0.914.

On to U15C G34C C57A G84U A98U, for which the “polymerase ribozyme fitness (log ratio)” value is -2.33.

In the case of U15A C35U U55A C96G A107U U135C, the “polymerase ribozyme fitness (log ratio)” value is at most -4.2. To A16C G92C belongs -1.11.

For U15G A19U A20U A29G U56A C57A C63U G94A U145G, the “polymerase ribozyme fitness (log ratio)” value is at most -4.2. U15A G74U C79G: the “polymerase ribozyme fitness (log ratio)” value was at most -4.2. The result for U15G C18G A40U reads -1.5; that for C14U U144G, -0.898; that for A16C C51U G84U U135A, -3.41.
